Measurements from article PMC9883506, “Self-recycling and partially conservative replication of mycobacterial methylmannose polysaccharides” (Communications Biology, 2023).

Experiments:
[1] = molecular target: T1, MeT1 (Mycolicibacterium hassiacum, UniProt K5B7F3); experiment: SahH-coupled DTNB assay of SAH release; assay type: biochemical; conditions: 100 μM MnCl2, BTP pH 7.5
T1 construct: full length, C-terminal His6 tag (pET30a), synthetic gene, E. coli BL21(DE3)

[2] = substrate: CCCO[C@H]1O[C@H](CO)[C@@H](O[C@H]2O[C@H](CO)[C@@H](O[C@H]3O[C@H](CO)[C@@H](O[C@H]4O[C@H](CO)[C@@H](O)[C@H](OC)[C@@H]4O)[C@H](OC)[C@@H]3O)[C@H](OC)[C@@H]2O)[C@H](OC)[C@@H]1O; experiment: coupled PK/LDH NADH assay of GDP release; assay type: biochemical, Mycolicibacterium hassiacum; conditions: 2.5 mM GDP-Man, 7.5 mM MgCl2, 5 mM NaCl, 0.1% Triton X-100, 50 mM BTP pH 8.5, 37 °C, acceptor
From the text: (§1) coupled PK/LDH NADH assay of GDP release on ManT

[3] = substrate: Nc1nc2c(ncn2[C@@H]2O[C@H](COP(=O)(O)OP(=O)(O)O[C@H]3O[C@H](CO)[C@@H](O)[C@H](O)[C@@H]3O)[C@@H](O)[C@H]2O)c(=O)[nH]1; experiment: coupled PK/LDH NADH assay of GDP release; assay type: biochemical, Mycolicibacterium hassiacum; conditions: 0.1% Triton X-100, 50 mM BTP pH 8.5, 37 °C, donor
From the text: as §1

[4] = substrate: CCCO[C@H]1O[C@H](CO)[C@@H](O[C@H]2O[C@H](CO)[C@@H](O[C@H]3O[C@H](CO)[C@@H](O[C@H]4O[C@H](CO)[C@@H](O)[C@H](O)[C@@H]4O)[C@H](O)[C@@H]3O)[C@H](O)[C@@H]2O)[C@H](O)[C@@H]1O; experiment: coupled PK/LDH NADH assay of GDP release; assay type: biochemical, Mycolicibacterium hassiacum; conditions: 5 mM GDP-Man, 7.5 mM MgCl2, 5 mM NaCl, 0.1% Triton X-100, 50 mM BTP pH 8.5, 37 °C, acceptor
From the text: as §1

[5] = 3.5 mM sMetMan4, 7.5 mM MgCl2, 5 mM NaCl
[6] = 1.5 mM sMetMan4, 7.5 mM MgCl2, 5 mM NaCl

T1 sequence (K5B7F3 whole entry): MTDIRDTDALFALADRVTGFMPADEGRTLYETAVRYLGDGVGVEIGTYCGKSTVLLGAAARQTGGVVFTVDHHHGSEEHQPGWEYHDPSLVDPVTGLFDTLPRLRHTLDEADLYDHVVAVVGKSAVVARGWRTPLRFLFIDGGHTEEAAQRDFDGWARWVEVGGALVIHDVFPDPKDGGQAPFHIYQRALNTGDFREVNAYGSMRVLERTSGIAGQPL

`C[S+](CC[C@H](N)C(=O)O)C[C@H]1O[C@@H](n2cnc3c(N)ncnc32)[C@H](O)[C@@H]1O` (stereo partly drawn) [SAM, S-adenosyl-methionine] was tested. Which “SahH-coupled DTNB assay of SAH release” value ([1]; 1.5 mM oligomannoside acceptor, methyl donor) did it give?
Its value is “quantified from the S-adenosyl-homocysteine (SAH) released from SAM through a continuous”.

`CO[C@@H]1[C@H](O)[C@@H](O[C@H]2[C@H](OC)[C@H](O)C(O)O[C@@H]2CO)O[C@H](CO)[C@H]1O` (stereo partly drawn) [sMetMan2] was tested. Which “SahH-coupled DTNB assay of SAH release” value ([1]; 1 mM SAM, 1.5 mM acceptor) did it give?
The value was “The activity of MeT1 toward the synthetic substrate sMetMan2 and the two natural substrates”.

B1: ManT (Mycolicibacterium hassiacum DSM 44199; E313A) (protein)
chain: MRIALLSYRSKTHCGGQGVYVRHLSRELAELGHDVEVFSGQPYPEGLDPRVRLTKVPSLDLYREPDPFRIPRPSEIKTSIDLEELLTTWTAGFPEPKTFSLRAARVLAGRRGDFDVVHDNQCLGTGLLQIAKMGFPLVATVHHPITRDREVEVAAARWWRKPLVRRWYGFVEMQKRVARQIPELLTVSSASASDILTDFAVSPEQLHVVPLGVDTKLFQPREGRVRNRIIAIASADVPLKGVSHLLHAVARLRVERDVELQLVTKLEPNGPTEKLIAELGISDIVHTSSGLSDEELAALLASAEVACIPSLYAGFSLPAVEAMASGTPIVASRAGALPEVVGPDGECARLVTPADVDELTAVLGRLLDSPRELRRLGDNGRRRAVEVFSWQSVAAQTVAVYEKAIARVAAC
notes: full length, N-terminal His6 tag (pETM11, tag not removed), synthetic gene, E. coli BL21(DE3); purified with Triton X-100
For B1, which Km [2] is on record?
The Km was 1180 ± 300 µM.

And the kcat/Km [2]?
Its kcat/Km is 5 ± 1 M⁻¹ s⁻¹.

What about the Km [3, 5] of the same molecule?
Its Km is 1230 ± 300 µM.

And the kcat/Km [3, 5]?
Its kcat/Km is 7 ± 2 M⁻¹ s⁻¹.

B2: ManT (Mycolicibacterium hassiacum DSM 44199) (protein)
chain: MRIALLSYRSKTHCGGQGVYVRHLSRELAELGHDVEVFSGQPYPEGLDPRVRLTKVPSLDLYREPDPFRIPRPSEIKTSIDLEELLTTWTAGFPEPKTFSLRAARVLAGRRGDFDVVHDNQCLGTGLLQIAKMGFPLVATVHHPITRDREVEVAAARWWRKPLVRRWYGFVEMQKRVARQIPELLTVSSASASDILTDFAVSPEQLHVVPLGVDTKLFQPREGRVRNRIIAIASADVPLKGVSHLLHAVARLRVERDVELQLVTKLEPNGPTEKLIAELGISDIVHTSSGLSDEELAALLASAEVACIPSLYEGFSLPAVEAMASGTPIVASRAGALPEVVGPDGECARLVTPADVDELTAVLGRLLDSPRELRRLGDNGRRRAVEVFSWQSVAAQTVAVYEKAIARVAAC
notes: as for B1
B2 was tested. Which Km [2] did it give?
Its Km is 130 ± 30 µM.

What about the kcat/Km [2] of the same molecule?
The kcat/Km was 362 ± 68 M⁻¹ s⁻¹.

What about the Km [4] of the same molecule?
The Km was 2780 ± 450 µM.

What about the kcat/Km [4] of the same molecule?
The kcat/Km was 9 ± 2 M⁻¹ s⁻¹.

What about the Km [3, 6] of the same molecule?
The Km was 280 ± 50 µM.

And the kcat/Km [3, 6]?
The kcat/Km was 171 ± 33 M⁻¹ s⁻¹.
